What all share (conditions): protein: recombinant; tags: His-SUMO removed by Ulp1
Data set [1] deals with T1, ESRP1 qRRM2 R397A (human, UniProt Q6NXG1 312-430, R397A).
T1 sequence: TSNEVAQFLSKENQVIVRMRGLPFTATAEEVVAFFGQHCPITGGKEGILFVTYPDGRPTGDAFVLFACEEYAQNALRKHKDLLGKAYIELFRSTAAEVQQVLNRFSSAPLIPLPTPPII
Briefly: ITC; ITC: 100 mM NaCl, 10 mM Tris-HCl pH 8.0, 25 C; 300 uM protein injected into 20 uM RNA.

Data set [2] concerns the target T2, ESRP1 qRRM2 F335A (human, UniProt Q6NXG1 312-430, F335A).
T2 sequence: T1 sequence with F24A, A86R
Described as above.

Data set [3] deals with T3, ESRP1 qRRM2 Y398A (human, UniProt Q6NXG1 312-430, Y398A).
T3 sequence: T1 sequence with A86R, Y87A
The data set is described as above.

The target in data set [4] is T4, ESRP1 qRRM2 WT (human, UniProt Q6NXG1 312-430).
T4 sequence: T1 sequence with A86R
The experiment in a line: X-ray crystallography (1.65 A); ITC: 100 mM NaCl, 10 mM Tris-HCl pH 8.0, 25 C; 300 uM protein injected into 20 uM RNA.

Positions count from the first letter of the chain named.

This note sets out measurements from publication PMC10853802, “ESRP1 controls biogenesis and function of a large abundant multiexon circRNA”.

B1: 6-mer RNA (ssRNA)
RNA: UGGUGG
Take B1: the binding result in data set [1], in data set [2] and in data set [3] was “no binding” throughout.

B2: 12-mer RNA (ssRNA)
RNA: UGGUGGUGGUGG
With B2, the binding result in data set [4] is “binds”.
